Source: the DeepSol protein solubility set

Assay: soluble on expression in E. coli; label from the status in PepcDB or PDB records

Soluble on expression in E. coli, not soluble:
MGSDKIHHHHHHMKVKYIAAILLSTQLVYTACDDMGFLQIKPDSLELTDDRIKTVDDLENLLLGAYNGIRSSGFWGGRTLRGFDVIADDGVADVATFEWVQMSAHTMNLVNAVGRDTWTATYNAINMANQVAFSDLGESILASDPQKEAQFKAEASFIRALGYFHLVRAFGLPYAEETKDIAEMGVPLRLRGVMDRATAFEVVQRSTVSEVYSQIISDLEYAIGNLPGENKVESGRATVDGAKALLAKVYFYKHDFGNAAKYAEQVINTQKYDLDEDLTAKFGRAEKKTVTQEIVAMIPSASLIEDSWGGLRDYRTNGLALPTSRPSNELIAAYDQQNDNRFKTFFKNIDGSWYTLKFDYEYMDGIIIGYNELLLLYAESLAESNGNMNQALNALQKIEKRAYGKANTTTTDRASFIKAVQKERRLEIALQGERLFELKRIKQSVRGEAWDSHKVMFQIPDVEQNGNPDVNMN
MGSDKIHHHHHHMKVSADVRAMIERRKKNYSLEAPFYTSDEIFALDMEAIFRQHWIQVAVEPDVPEPGDYITVDIGNDSILIVRDDDMQVRAFHNVCRHRGARLCNTDKGSLGNIVCPYHSWTYNLNGDLMFAEHMGEQFDRCKHSLKAVHVENLAGLIFICLADNPPADFAVVRAAMEPYMLPHALASCKIAASIDIIEEGNWKLTMENNRECYHCVANHPELTISLYEYGFGYQRTPANEEGMAAFEETVARRTAQWEAMQLPSAEIERLADLVTGFRTQRLPLDRDGESQTLDAKVASKKLLGGFEQADLGGLSFWTQPNSWHHFMSDHIVSFSVIPLSAGKTLVRTKWLVHKDAREGIDYDVDNLTAVWRATNDQDRALVEYSQRGATSSAYEPGPYSPFTEGLVEKFCEWYIGRMAQYSNAPQTHDAGDTAPASHGEKVVSFKR
MGSDKIHHHHHHMKVVSLLTDFGDFYPGVMKGVILSLAPEARIVDITHSVEPQNILQGAFLLYHSFRYFRNAVHVAVVDPGVGSERRALVIEGKNHFFVGPDNGILYPSAVEDGIKAAYSIKEEISELVGELSSTFHGRDIFAPAAAMVVRGDYTYFEEINKEELEKLELFDCSIQGNKVRCRVVYVDRFGNVVTNLREVKGKGFYFRGVEFPFVKTYSDVDVGKPLSLIGSFGTLELSVREGSAAEMLGIKRGGGWIELEVL
MGSDKIHHHHHHMKWRGYLTPVTENYLHAYGVGYISYVLARKFHVDSVKAFVTGTLHDLGGAVPADERVTVAESIGISLNDEEREVPLLVHAKLGKYFAQTLFDITDEDMLNAILFHTTCIDRASDLVKIVFLADKIRWDRNGTPPYLDGLLAALEISLDDGCSYFLKWLWNSDLYIVHPYLSRSYGAYVRQQQYNPISLQDFSVLQGNLNENLVKKYYLHDIYQEFHRTFYHAHLASVLASKHSVNTEEAYVTSALVNMTNTIKDDELETIASVLNLNVQVPIRPQLTSILARDEYGITSLEMLKTLKSFPQIPSNHNSLLWVVVMSWICQKSIKCEVEDE
MGSDKIHHHHHHMKYEKIAFFRFFGRLNDFFRNSERIKTHRFTGFQTVKDRIEALGVPHVEVSLITLNGKPVGFDHMVEDGELFFVYPEFQNIEIPEDWLVTPRYIGEPRFVLDIHLGKLARLLRMLGFEAVFGEESDEKLCWMAVKKKAILLSRDTGLLKRKELVFGYYVRNTDPKEQLVEVVERYDLKKWMKPFTRCIECGVELEEVPKEAVKNRVPPKVYGFFNEFARCPVCGRIYWKGSHYDHMVEFIKSNINKG
MGSDKIHHHHHHMKYILVTGGVISGIGKGVIASSVGTILKSCGLHVTSIKIDPYINIDAGTFSPYEHGEVFVLDDGGEVDLDLGNYERFLDIRLTKDNNLTTGKIYQYVINKERKGDYLGKTVQVVPHITDAIQEWVMRQALIPVDEDGLEPQVCVIELGGTVGDIESMPFIEAFRQFQFKVKRENFCNIHVSLVPQPSSTGEQKTKPTQNSVRELRGLGLSPDLVVCRCSNPLDTSVKEKISMFCHVEPEQVICVHDVSSIYRVPLLLEEQGVVDYFLRRLDLPIERQSRKMLMKWKEMADRYDRLLETCSIALVGKYTKFSDSYASVIKALEHSALAINHKLEIKYIDSTDLEPSTLQEEPVRYHEAWQKLCSAHGVLVPGGFGVRGTEGKIQAIAWARKQKKPFLGVCLGMQLAVVEFSRNVLGWQDANSTEFDPKTSHPVVIDMPEHNPGQMGGTMRLGKRRTLFQTKNSVMRKLYGDTDYLEERHRHRFEVNPVLKKCLEEQGLKFVGQDVEGERMEIVELEDHPFFVGVQYHPEFLSRPIKPSPPYFGLLLASVGRLPHYLQKGCRLSPRDTYSDRSGSSSPDSEITELKFPSISQD
MGSDKIHHHHHHMKYLKQYMIIGAVTMITSCSDFLDTAPLDALSPATTWKTEDDAQKFAIGCYGGNNYDTSSWEDGGNILYLDCGSDFGYNNFEWENYKTIGNGTMTPSGAVASFYDFSVIRRCNTFLEKVKEIPFSNEQTKNDLIGQVRTIRAYRYFVMNWWYGGVPVIDNYNSADEAKVPRKSEEEVKNYVNTELDTAIGELNASPSERGRIAKGAAMAIRMRSALYYGDYVKAKEMAEAIMNLKQYDLEPDYSNLFKVAGQDSKEIILAVQYVNSTLELGTIGQMYNNGDGGWSSIVPTQNLVDTYEMADGLTKEESGSYDPNHPFAGRDPRMAMTIIYPGMDWNGTVVNTLDKTINGKDNANYPPSANNASKTALTWRKYLDEQYANGIWNTNACPIVIRYAEVLLTYAEAVNELSGPSADVYDKLDLIRGRVGMPKVDREKYASKETLRRLIRRERGVELAGEGVRRADILRWKDDNGKMVAETVLNGVLERVVGTVNYAETDPTKRAEIDTNAPATDKKIEDRVFKVHNRYNPIPQGAIDNNPNLEQNPGY
MGSDKIHHHHHHMLAGKTASEIFDNIRHLVQSGGLQPGEVLPPVRELASQLAVNRNTVAAAYKRLVTSGLAVSQGRNGTAIKARDTLPALEGGDPTTPLNDISSGNPDPARLPDLPRYLGQIARTPRLYGDAPIEPRLGQWAEAWFAREIAVPFAVNLASGAIDALERLLCALLLPGDGVVVEDPCFLSSINMVRYAGFTPCPVAVDAEGMDPDGLEEALRNGARAVILTPRAHNPTGCSLTETRAHALREVLARYPQVLAIVDDHFALLSATPWHSPLPASTQRWALVRSMSKTLGPDLRLAFIASDAATSAALRLRLNAGSQWVSHLLQDLTLACLTDEAFIASMTETRRHYRQQNEKLAAALARHGFSHATPGDGLNFWLPLPAASQPYALRLARAGWLVREGEVFGIRTPSHGLRLSLGRLSDAEISRLAADIAQALDAP
MGSDKIHHHHHHMLANLNQAMDYIEEHLTEEVSFDELAKKTGISVYHFKRTFSFITGMSLAEYIKKRPLAEANLALLAGEKVTDVAFKYGYQSIEGFSRAFRDWSGQAPSEVMKTQIQKTFPKFSFYIDIKGGQSMDVKLIEKPAFQIVGVSQKVPLQYQGENQAIMELAQRITPQQRAEMHTFDDIYPHQVVNASFDFQEGRTTEGGEMTHMIGFATSQENTYEDLEQLSVPAHTWAVFPNEGPFPQTLQETWAKIFSEWLPSSGYQVVAAPEISFTQYQGPAEAKYSEIWLAVTATK
MGSDKIHHHHHHMLAVEMRRIYKVYPDGVVALKGVDFTVEEGEIHGLLGENGAGKSTLMRILYGEIKPTKGEVKVFGDKVEFNGPWDAIRKGIAMVYQHFTLIPTFTVLENLYLSMLTINPNITINEVRKLAKEKMKDIGFSVPLDDVVEDLPIGIQQRVEIIKALMANAKILILDEPTSVLTPLEVEELFKTLRKLKENGITVIFITHKLKEVKEITDRVTVLRRGEVVGVAKTKEVSERDLAKMMVQREIVMEIKKSPASPGNTVLRVEDLWVKDDRGLDAVKGVSFELKEGEILGIAGVQGNGQKELAEALAGIRRIEKGRIELLGRDVTELSADKRYKAGLAYVPDSRKVGLVLDMSVVENVILTNLPSVMRGRRISWEKANKIGKEIVERFDVLVSSLSTPIKHLSGGNQQKVMVGREIIREPKVVIVSEPTQGLDIGATEFIRKTLVSLRDQGKGILLISTDLDEILQLSDRIAVMYEGKIMAIGKVEEFTLEKLGLLMGGVNA
MGSDKIHHHHHHMLEELSENVWIAEGTCVSFHGFHGFHGFHGFHGFHGFQYPTRSVVVRLKSGAMWVWSPVKFDQDLADEIESLGTITHLVSPNKIHHLFLADWSSHVPTAKIWGPRSTVNKRRDLVFQPALDHLPPRDWAEDFEQFHVKGSLAMDEILFLHKQSNTLILADFSEHFSDQFLQRHWQPWQRRIGQFWGITEGRGFAPLDWRLSFLNRSHLRTLKQQLLDRQVDHVVMAHGEIARTDGHRFLQRSLAWI
MGSDKIHHHHHHMLEREGIEISLRTIQRDLNQIAQRFPIESNKAVPQGWRWQSDAPIQSLPHMTSSQAVTFMMVEEHLKHLLPPSLLDEMGPWFDLAKRSLSTQNNVRQWINRVRIVPASQPLIPPVVDRAAQQAIYEGLLQDKQIECVYRARVNQGEDKTYILNPLALVQKGAVIYLICTRHDKTEVQTFALHRFKSAKVLESRALHPVNFDIDHYIDSGALGFRVDYNQPTESIQLTLTMTEQTAKTFYESQLSKDQTITPIEENIVEVTATVPFTSQLVWWLRSFGKKLLHIEPVQVHNAVREIEPDSK
MGSDKIHHHHHHMLEVKKLTVCYNDFLALNEISLKIQEGALTGIFGPNGAGKSTLLKAMLNIIPHQGEVSINNEDINKKLVKIAYVEQKADIDFTFPIKVKECVSMGTYAGMKVFQRIKNAEWQKVSKALEKVDMGKYSNHQIGELSGGQFQRVLLARCLAQNADFIFLDEPFVGIDLVSERIIMDTLKELKHQGKTVLIVHHDLSKVKKYFDNIILLNRNLIAHGSVESVFNEENLKKAYGDTIFIGEGE
MGSDKIHHHHHHMLFLKELESNLTVSKLMELCFEHPSYKDYCSVISTKKGEVLESLSPAGTKVYFVLSGIYGMIVEEDAEMEEESYKESIVRFLQKGDSFGLYHLFYDEWSPHVSMQSLGHGEVMEVDSNFLFSIFDKKDENNFFMIKVMAEELREAHTFAKLSFLKKEERIRKAILKCAQTLGTFSDNGILLPREITQEVLARYTNTSREYVAHTVMHLIKEDIIRNRPKPLLVMDKTRL
MGSDKIHHHHHHMLFNTRPKEDRKDLYDREKEIEMIKDSIARGEWIAVLGMRRIGKTSVVNVAVKEIGAIKVSINLMRIHDSRKKQYPKHVLISLLIEEINEAIKNYTILGKVAKLLSNILGVEEIQTNKVRAKLTKIRGTDITYIIREMDSIARDNKKQLVIILDEAQELAKVNGLDFPSIFHDVYDNCKNTVIIFTGSMVKLIEKTLKNIEYTEPFFGRYIRKITLGRFLPEQSREFLEKGFEEEGIKVDESVIDEAVKRLDGIPGWLTLFGSEYTFSAKMGTKPRIDEIIEKAINEVRNEARNFIFSTQSPLRYSAVILALDRLGGKGELHEIVKVSSTILNENIPEPRVYEILNRLVEFDFIERREDNEYYLHQDEPNRKGLILAAKDSPASYSI
MGSDKIHHHHHHMLINRNIVALFALPFMASATASELSIGAGAAYNESPYRGYNENTKAIPLISYEGDTFYVRQTTLGFILSQSEKNELSLTASWMPLEFDPTDNDDYAMQQLDKRDSTAMAGVAWYHHERWGTVKASAAADVLDNSNGWVGELSVFHKMQIGRLSLTPALGVLYYDENFSDYYYGISESESRRSGLASYSAQDAWVPYVSLTAKYPIGEHVVLMASAGYSELPEEITDSPMIDRNESFTFVTGVSWRF
MGSDKIHHHHHHMLKICVIGSSGHFRYALEGLDEECSITGIAPGVPEEDLSKLEKAISEMNIKPKKYNNWWEMLEKEKPDILVINTVFSLNGKILLEALERKIHAFVEKPIATTFEDLEKIRSVYQKVRNEVFFTAMFGIRYRPHFLTAKKLVSEGAVGEIRLVNTQKSYKLGQRPDFYKKRETYGGTIPWVGIHAIDWIHWITGKKFLSVYATHSRLHNSGHGELETTALCHFTLENEVFASLSIDYLRPQGAPTHDDDRMRIVGTRGIVEVINERVFLTDEKGHREVPLVEKGQIFEDFLREIRGQGKCMVTPEDSILTTEIALKARLSADTGQIVLI
